This is an account of results in publication PMC12646662.

The target of test [1] is E-cadherin, endogenous in SK-Mel-28 cells. In words: Flag IP with mass spectrometry (LFQ). The following applies: read off a plot.
In test [2] the target is GSDMA. Briefly: Flag IP with mass spectrometry (LFQ). The following applies: SK-Mel-28 cells; read off a plot.

As to “Flag-CTNND1 WT, stably expressed in SK-Mel-28 cells (from UniProt O60716) C618S”, the log10 ratio is -2.5 in test [1] and 2.2 in test [2].
